Data as given in patent publication US20030068675, “Position dependent recognition of GNN nucleotide triplets by zinc fingers” (published 2003).
Changes are numbered by the printed parent chain.

Assays:
Test in all cases: EMSA
Settings in all cases: tags: MBP fusion
[1] = target: T1, ZFP SBS#405 (synthetic)
T1 chain: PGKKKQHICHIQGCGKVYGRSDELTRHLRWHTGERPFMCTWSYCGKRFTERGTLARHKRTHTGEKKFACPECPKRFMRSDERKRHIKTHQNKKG
Procedure: (§1) Affinity is measured by titrating purified protein against a fixed amount of labeled double-stranded oligonucleotide target. The target typically comprises the natural binding site sequence flanked by the 3 bp found in the natural sequence and additional, constant flanking sequences. The natural binding site is typically 9 bp for a three-finger protein and 2×9 bp +intervening bases for a six finger ZFP. […] For the assay the target is added at a concentration of 1 nM or lower (the actual concentration is kept at least 10-fold lower than the expected dissociation constant), purified ZFPs are added at various concentrations, and the reaction is allowed to equilibrate for at least 45 min. In addition the reaction mixture also contains 10 mM Tris (pH 7.5), 100 mM KCl, 1 mM MgCl2, 0.1 mM ZnCl2, 5 mM DTT, 10% glycerol, 0.02% BSA. (NB: in earlier assays poly d(IC) was also added at […].) The equilibrated reactions are loaded onto a 10% polyacrylamide gel, which has been pre-run for 45 min in Tris/glycine buffer, then bound and unbound labeled target is resolved by electrophoresis at 150V.

[2] = target: T2, ZFP SBS#407 (synthetic)
T2 chain: T1 chain with R20Q, D22W
Procedure: as §1

[3] = target: T3, ZFP SBS#408 (synthetic)
T3 chain: T1 chain with R20Q, D22W, E50D, G52S, T53S, A55T
Procedure: as §1

[4] = target: T4, ZFP SBS#409 (synthetic)
T4 chain: T1 chain with R20Q, D22G, E23S
Procedure: as §1

[5] = target: T5, ZFP SBS#406 (synthetic)
T5 chain: T1 chain with E50D, G52S, T53S, A55T
Procedure: as §1

[6] = target: ZFP SBS#397 (synthetic)
Sequence of ZFP SBS#397 (synthetic) (chain, as listed by the source): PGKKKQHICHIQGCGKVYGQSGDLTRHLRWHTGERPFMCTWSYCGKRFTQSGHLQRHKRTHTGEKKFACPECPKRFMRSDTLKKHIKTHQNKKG
Procedure: as §1

[7] = target: ZFP SBS#396 (synthetic)
Sequence of ZFP SBS#396 (synthetic) (chain, as listed by the source): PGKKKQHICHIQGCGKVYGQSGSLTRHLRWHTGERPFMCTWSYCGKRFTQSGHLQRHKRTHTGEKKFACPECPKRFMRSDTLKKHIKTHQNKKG
Procedure: as §1

[8] = target: ZFP SBS#509 (synthetic)
Sequence of ZFP SBS#509 (synthetic) (chain, as listed by the source): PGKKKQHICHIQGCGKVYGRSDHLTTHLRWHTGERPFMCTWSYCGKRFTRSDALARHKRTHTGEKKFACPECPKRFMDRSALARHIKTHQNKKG
Procedure: as §1

[9] = target: T6, ZFP SBS#494 (synthetic)
T6 chain: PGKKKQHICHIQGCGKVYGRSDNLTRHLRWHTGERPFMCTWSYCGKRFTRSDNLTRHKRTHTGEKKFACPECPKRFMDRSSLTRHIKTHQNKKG
Procedure: as §1

[10] = target: T7, ZFP SBS#378 (synthetic)
T7 chain: T6 chain
Procedure: as §1

[11] = target: T8, ZFP SBS#379 (synthetic)
T8 chain: T6 chain with D78E, S80G, S81T, T83A
Procedure: as §1

[12] = target: ZFP SBS#510 (synthetic)
Sequence of ZFP SBS#510 (synthetic) (chain, as listed by the source): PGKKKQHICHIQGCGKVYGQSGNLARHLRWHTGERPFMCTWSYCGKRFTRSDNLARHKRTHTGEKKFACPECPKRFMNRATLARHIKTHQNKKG
Procedure: as §1

[13] = target: ZFP SBS#511 (synthetic)
Sequence of ZFP SBS#511 (synthetic) (chain, as listed by the source): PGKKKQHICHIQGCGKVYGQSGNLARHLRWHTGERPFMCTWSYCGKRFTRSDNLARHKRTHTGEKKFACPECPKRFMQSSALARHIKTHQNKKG
Procedure: as §1

[14] = target: T9, ZFP SBS#508 (synthetic)
T9 chain: T1 chain with E23N, T25A, E50Q, R51S, G52A, E81N, R82L, K83A
Procedure: as §1

[15] = target: T10, ZFP SBS#507 (synthetic)
T10 chain: T1 chain with E23N, T25A, E50Q, G52S, T53A, E81N, R82L, K83A
Procedure: as §1

[16] = target: T11, ZFP SBS#493 (synthetic, UniProt P08047)
T11 chain: T1 chain with E23T, T25K, R26K, E50R, R51S, G52D, T53S, E81H, R82L, K83S
Procedure: as §1

[17] = target: ZFP SBS#339 (synthetic)
Sequence of ZFP SBS#339 (synthetic) (chain, as listed by the source): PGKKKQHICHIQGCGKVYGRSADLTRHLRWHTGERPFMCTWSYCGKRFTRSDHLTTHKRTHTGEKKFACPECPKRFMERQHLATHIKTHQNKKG
Procedure: as §1

[18] = target: ZFP SBS#345 (synthetic)
Procedure: as §1

[19] = target: ZFP SBS#338 (synthetic)
Sequence of ZFP SBS#338 (synthetic) (chain, as listed by the source): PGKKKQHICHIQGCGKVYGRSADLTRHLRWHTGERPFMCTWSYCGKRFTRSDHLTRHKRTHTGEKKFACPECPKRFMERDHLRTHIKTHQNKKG
Procedure: as §1

[20] = target: ZFP SBS#337 (synthetic)
Sequence of ZFP SBS#337 (synthetic) (chain, as listed by the source): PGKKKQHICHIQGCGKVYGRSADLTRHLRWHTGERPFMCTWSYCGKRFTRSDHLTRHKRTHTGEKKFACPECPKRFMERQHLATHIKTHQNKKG
Procedure: as §1

[21] = target: ZFP SBS#343 (synthetic)
Procedure: as §1

[22] = target: ZFP SBS#346 (synthetic)
Procedure: as §1

[23] = target: ZFP SBS#344 (synthetic)
Sequence of ZFP SBS#344 (synthetic) (chain, as listed by the source): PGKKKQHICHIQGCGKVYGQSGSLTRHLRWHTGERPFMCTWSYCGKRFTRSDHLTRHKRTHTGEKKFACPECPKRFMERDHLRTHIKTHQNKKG
Procedure: as §1

[24] = target: T12, ZFP SBS#340 (synthetic)
T12 chain: T6 chain with D22A, N23D, N53H, R56T, D78E, S80D, S81H, T83R, R84T
Procedure: as §1

[25] = target: ZFP SBS#502 (synthetic, UniProt P08047)
Sequence of ZFP SBS#502 (P08047 other isoform, or with tags, fused parts or gaps): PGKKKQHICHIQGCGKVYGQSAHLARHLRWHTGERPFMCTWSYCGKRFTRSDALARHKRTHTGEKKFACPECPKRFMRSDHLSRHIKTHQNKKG
Procedure: as §1

[26] = target: T13, ZFP SBS#400 (synthetic)
T13 chain: T6 chain with N23A, T25A, N53S, T55A, D78Q, R79S, S80G, S81D, T83R, R84T
Procedure: as §1

[27] = target: ZFP SBS#412 (synthetic)
Sequence of ZFP SBS#412 (synthetic) (chain, as listed by the source): as the sequence (P08047 other isoform, or with tags, fused parts or gaps) above, with A22G, H23S, A25T, A53H, A55T, R56T, H81E, L82R, S83K counted along it
Procedure: as §1

[28] = target: ZFP SBS#512 (synthetic)
Sequence of ZFP SBS#512 (synthetic) (chain, as listed by the source): as the sequence (P08047 other isoform, or with tags, fused parts or gaps) above, with A22G, H23N, H81N, S83A counted along it
Procedure: as §1

[29] = target: ZFP SBS#513 (synthetic)
Sequence of ZFP SBS#513 (synthetic) (chain, as listed by the source): as the sequence (P08047 other isoform, or with tags, fused parts or gaps) above, with H23N, H81N, S83A counted along it
Procedure: as §1

[30] = target: ZFP SBS#413 (synthetic)
Sequence of ZFP SBS#413 (synthetic) (chain, as listed by the source): as the sequence (P08047 other isoform, or with tags, fused parts or gaps) above, with A22G, H23S, A25T, A53H, A55T, R56T, H81E, L82R, S83K counted along it
Procedure: as §1

[31] = target: T14, ZFP SBS#514 (synthetic)
T14 chain: T6 chain with N23A, N53A, T55A, D78R, R79S, S80D, S81N, R84T
Procedure: as §1

[32] = target: ZFP SBS#388 (synthetic)
Sequence of ZFP SBS#388 (synthetic) (chain, as listed by the source): as the sequence (P08047 other isoform, or with tags, fused parts or gaps) above, with A22G, H23D, A25T, A53N, R78D, S79R, D80S, S83A counted along it
Procedure: as §1

[33] = target: ZFP SBS#387 (synthetic)
Sequence of ZFP SBS#387 (synthetic) (chain, as listed by the source): as the sequence (P08047 other isoform, or with tags, fused parts or gaps) above, with A22G, H23S, A25T, A53N, R78D, S79R, D80S, S83A counted along it
Procedure: as §1

[34] = target: T15, ZFP SBS#501 (synthetic)
T15 chain: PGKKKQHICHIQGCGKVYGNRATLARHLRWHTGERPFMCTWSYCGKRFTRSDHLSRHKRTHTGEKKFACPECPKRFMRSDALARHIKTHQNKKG
Procedure: as §1

[35] = target: T16, ZFP SBS#386 (synthetic, UniProt P08047)
T16 chain: T6 chain with N53E, T55Q, D78R, R79S, S80D, S81H, T83S
Procedure: as §1

[36] = target: T17, ZFP SBS#385 (synthetic)
T17 chain: T6 chain with N53T, T55K, R56K, D78R, R79S, S80D, S81H, T83S
Procedure: as §1

[37] = target: T18, ZFP SBS#410 (synthetic)
T18 chain: T6 chain with N23A, R50Q, D52G, D78Q, R79S, S80G
Procedure: as §1

[38] = target: T19, ZFP SBS#390 (synthetic)
T19 chain: T15 chain with N20R, R21S, A22D, A25K, R26K, R50Q, D52S, H53D, S55Q, R56K
Procedure: as §1

B1: GCGGCCGCA (dsDNA)
DNA 1: GCGGCCGCA
DNA 2: TGCGGCCGC
[1]
  Kd: 110 nM
[2]
  Kd: 410 nM
[3]
  Kd: 380 nM
[4]
  Kd: 50 nM
[5]
  Kd: 110 nM

B2: GCGGGAGCAG (dsDNA)
DNA 1: GCGGGAGCAG
DNA 2: CTGCTCCCGC
[6]
  Kd: 25 nM
[7]
  Kd: 18.8 nM

B3: GTCGTGTGGC (dsDNA)
DNA 1: GTCGTGTGGC
DNA 2: GCCACACGAC
[8]
  Kd: 100 nM

B4: GCCGAGGAGA (dsDNA)
DNA 1: GCCGAGGAGA
DNA 2: TCTCCTCGGC
[9]
  Kd: 90 nM
[10]
  Kd: 31 nM
[11]
  Kd: 3 nM

B5: GTTGAGGAAG (dsDNA)
DNA 1: GTTGAGGAAG
DNA 2: CTTCCTCAAC
[12]
  Kd: 100 nM
[13]
  Kd: 100 nM

B6: GAGGTAGAGG (dsDNA)
DNA 1: GAGGTAGAGG
DNA 2: CCTCTACCTC
[14]
  Kd: 10 nM
[15]
  Kd: 10 nM

B7: GGGGTGGCGG (dsDNA)
DNA 1: GGGGTGGCGG
DNA 2: CCGCCACCCC
[16]
  Kd: 300 nM

B8: TGCGGGGCAA (dsDNA)
DNA 1: TGCGGGGCAA
DNA 2: TTGCCCCGCA
[17]
  Kd: 64 nM
[18]
  Kd: 96 nM
[19]
  Kd: 8 nM
[20]
  Kd: 24 nM
[21]
  Kd: 8 nM
[22]
  Kd: 64 nM
[23]
  Kd: 6 nM
[24]
  Kd: 48 nM

B9: GGGGTGGGA (dsDNA)
DNA 1: GGGGTGGGA
DNA 2: TCCCACCCC
[25]
  Kd: 60 nM

B10: TCAGTGGTGG (dsDNA)
DNA 1: TCAGTGGTGG
DNA 2: CCACCACTGA
[26]
  Kd: 40 nM

B11: GCGTGGGCG (dsDNA)
DNA 1: GCGTGGGCG
DNA 2: CGCCCACGC
[27]
  Kd: 5 nM

B12: GAGGTGGAAG (dsDNA)
DNA 1: GAGGTGGAAG
DNA 2: CTTCCACCTC
[28]
  Kd: 10 nM
[29]
  Kd: 1.5 nM

B13: GCGTGGGCA (dsDNA)
DNA 1: GCGTGGGCA
DNA 2: TGCCCACGC
[30]
  Kd: 5 nM

B14: TAGGTGGTGG (dsDNA)
DNA 1: TAGGTGGTGG
DNA 2: CCACCACCTA
[31]
  Kd: 10 nM

B15: GGCGAGGCAA (dsDNA)
DNA 1: GGCGAGGCAA
DNA 2: TTGCCTCGCC
[32]
  Kd: 28 nM
[33]
  Kd: 2.5 nM

B16: GTGGGGGTT (dsDNA)
DNA 1: GTGGGGGTT
DNA 2: AACCCCCAC
[34]
  Kd: 8 nM

B17: GGGGCGGAGC (dsDNA)
DNA 1: GGGGCGGAGC
DNA 2: GCTCCGCCCC
[35]
  Kd: 0.4 nM
[36]
  Kd: 1.2 nM

B18: GCAGAAGTC (dsDNA)
DNA 1: GCAGAAGTC
DNA 2: GACTTCTGC
[37]
  Kd: 3 nM

B19: GTGGCAGCGG (dsDNA)
DNA 1: GTGGCAGCGG
DNA 2: CCGCTGCCAC
[38]
  Kd: 20 nM
